Measured values as given in the nanobody polyreactivity screen of Harvey et al. (2022).

assay: yeast display, Sf9 membrane polyspecificity reagent, FACS + sequencing; frameworks hold sequencing errors
Summary of the method: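 Nanobodies from a synthetic yeast display library (Saccharomyces cerevisiae BJ5465), induced 36–48 hours with galactose, were stained 1 hour at 4 °C with 10% biotinylated, detergent-solubilized Sf9 membrane reagent, enriched on streptavidin microbeads, then FACS-sorted. Anti-HA (expression) and streptavidin (reagent binding) fluorescence set low and high (top ~1%) gates. Polyreactivity labels come from the gate of origin. Genes were colony-PCR amplified, MiSeq 2 × 250 sequenced and filtered by CDR length.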

Sequence | polyreactivity (PSR sort gate)
QVQLVESGGGLVQAGGSLRLSCAASGLTLSGYAMGWYRQAPGKERELVAAISSTGGSTYYADSVKGRFTISRDNAKNTVYLQMNSLKPEDTAVYYCAKGYSPTRVRLRYPRYDTYNHWGQGTQVTVSS | high polyreactivity
QVQLVESGGGLVQAGGSLRLSCAASGLTLSYNAMGWYRQAPGKERELVAAIRSGGSTNYADSVKGRFTISRDNAKNTVYLQMNSLKPVDTAVYYCAARFRYLPYRYGRYQSGYEYWGQGTQVTVSS | high polyreactivity
QVQLVESGGGLVQAGGSLRLSCAASGLTLSYYAMGWYRQAPGKERELVAAISSGGSTYYADSVKGRFTISRDNAKNTVYLQMNSLKPEDTAVYYCAAQWWRLYWEYYYWGQGTQVTVSS | low polyreactivity
QVQLVESGGGLVQAGGSLRLSCAASGLTLTPYVMGWYRQAPGKEREFVAAITYTGGRTYYADSVKGRFTISRDNAKNTVYLKMNSLKPEDTAVYDCNKGYYQTWPRYYSWGQGTQVTVSS | high polyreactivity
QVQLVESGGGLVQAGGSLRLSCAASGLTLYRYAMGWYRQAPGKEREFVASISWSGGSTYYADSVKGRFTISRDNANNTVYLQMNSLKPEDTAVYYCATDSDTSQLGYDYWGQGTQVTVSS | low polyreactivity
QVQLVESGGGLVQAGGSLRLSCAASGLTSDENAMGWYRQAPGKERELVAVISNSGDSTYYADSVKGRFTISRDTAKNTVYLQLNSLKPEDTAVYNCAADGLSKFDYWGQGTQVTVSS | low polyreactivity
QVQLVESGGGLVQAGGSLRLSCAASGLTSLGNAMGWYRQAPGKERELVAAITRTGTSTYYADSVKGRFTISRDNAKNTVYLQMNSLKPEDTAVYYCAALDRYSTEYKYQLYKQEYDYWVQGTQVTVSS | low polyreactivity
QVQLVESGGGLVQAGGSLRLSCAASGLTSSGNAMGWYRQAPGKERELVAAISWKAGSTYYADSVKGRFTISRDNAKNTVYLQMNSLKPEDTGVYYCAATLWSKTGYDYWGQGTIVTVSS | low polyreactivity
QVQLVESGGGLVQAGGSLRLSCAASGLTSTNNAMGWYRQAHGKERELVAAITSGSTTNYADSVKGRFTISRDNAKNTVYLQMNSLKPEDTAVYYCAAQYGVCWRRYYYPEYDYWGQGTQVTVSS | low polyreactivity
QVQLVESGGGLVQAGGSLRLSCAASGLTSYDYGMGWYRQAPGKERELVAAITWSGGSTYYADSVKGRFTISRDNAKNTVYLEMHSLKPEDTAVYYCAAESWGYGWYGYWGQGNQVTVSS | low polyreactivity
QVQLVESGGGLVQAGGSLRLSCAASGLTYKYYAMGWYRQAPGKERELVARISRGGNTNYADSVKGRFTISRDNAKNTVYLQMNSVKPEDTAVFYCAATVRVYDYWGQGTQVSVSS | high polyreactivity
QVQLVESGGGLVQAGGSLRLSCAASGMIFGYYAMGWYRQAPAKERELVAAITGSGGRTYYADSVKGRFTISRDNAKNTVYLQMNSLKTEDTAVYYCADRGVNGMGYWGQGTHVTVSS | high polyreactivity
QVQLVESGGGLVQAGGSLRLSCAASGNAIGWYRQAPGKERELVASINRSGGRTYYADSVKGRFTISRDNAKNTVYLQMNSLKPEDTAVYYCAARTHYDSDYWGQGTQVTVSS | low polyreactivity
QVQLVESGGGLVQAGGSLRLSCAASGNIFANAMGWYRQAPGKERELVAAISRSGGSTYYADSVKGRFTISRDNAKNTVYLQMNSLKPEDTAVYYCAARTTRGPTFGYWGQGTQVTVSS | high polyreactivity
QVQLVESGGGLVQAGGSLRLSCAASGNIFATYAMGWYRQAPGKESELVAAITSSGGRTYYADSVKGRFTISRDNAKISVYLQMNSLKPEDTAVYNCNAVYSLYYTRYNYWGHGTQVTVSS | high polyreactivity
QVQLVESGGGLVQAGGSLRLSCAASGNIFAYYAMGWYRQAPGKERELVAAISRRGGSTYYADSVKGRFTISRDNAKNTVYLQMNSLKPEDTAVYYCNADTGNRGYDYWGQGTQVTVSS | high polyreactivity
QVQLVESGGGLVQAGGSLRLSCAASGNIFDIYAMGWYRQATGKERELVAAICSGGSTYYADSVKGRFTISRDNAKNTVYLQMISLKTEDTAVDYCAESRVGYYRYEYWGQGTQVTVSS | low polyreactivity
QVQLVESGGGLVQAGGSLRLSCAASGNIFDRNAMGWYRHAPGKQRELVAAISRSGGRTYYADSVKGRFTISRDNAKNTVYLQMISLKPEDTGVYYCATTYGGTYEYDYWGQGTQVTVSS | high polyreactivity
QVQLVESGGGLVQAGGSLRLSCAASGNIFDSNAMGWYRQAPGKERELVAAITWSGGSTYYADSVKGRFTISRDNAKNTVYLQMNSLKPEDTAVYYCNAVRQQRNVPGGQYEFDYWGQGTQVTVSS | high polyreactivity
QVQLVESGGGLVQAGGSLRLSCAASGNIFDTNAMGWYRQAPGKERELVATITQRGGTTYYADSVKGRFTISRDNAKNTVYLQINILKPEDTAVYYCNAGPVRLPYDSWGQGTQVTVSS | low polyreactivity
QVQLVESGGGLVQAGGSLRLSCAASGNIFFVYDMGWYRQSPGKERELVAAISWSGGSTYADSVKGRFTISRDNAKNTVYLQMNSLKPEDTAVYYCNAQGYRYRIGYDYWGQGTQVTVSS | low polyreactivity
QVQLVESGGGLVQAGGSLRLSCAASGNIFGFYTMGWYRQAPGKERELVAAIRSRGGSTNYADSVKGRFTISRDNAKNTVYIQMNSLKPEDTAVYYCNKDGTWLARAVTYADFDYWGQGTQVTVSS | low polyreactivity

Sequence | polyreactivity (PSR sort gate)
QVQLVESGGGLVQAGGSLRLSCAASGNIFGIYTMGWYRQAPGKEREFFAVISLSGTSTYYADSVKGRFTISRDNAKNTVYLQMNSLKPEDTAVYYCNARTPHNKGRRRAYDYWGLGTQVTVSS | high polyreactivity
QVQLVESGGGLVQAGGSLRLSCAASGNIFGKYAMGWYRQAPGKERELVAAISSGGRTNYADSVKGRFTISRDNAKNTVYLQMNSLKPEDTAVYYCAKRYFRTKGYYYWGQGTQVTVSS | high polyreactivity
QVQLVESGGGLVQAGGSLRLSCAASGNIFGWYAMGWYRQAPGKERELVAAISSGGRTNYADSVKGRFTISRDNAKNTVYLQMNSLKPEETAVYYCAVGLHKRPPPPRFRQFNYWGQGTQVTVSS | low polyreactivity
QVQLVESGGGLVQAGGSLRLSCAASGNIFGYYVMGWYRPAPGKERELVAGISSGDSTDYADSVKGRFTISRDNAKNTVYLQMNSLKPEDTAVYYCNADWNPTERWFYWYTPLGYDYWGQGTQVTVSS | low polyreactivity
QVQLVESGGGLVQAGGSLRLSCAASGNIFHFYAIARYRQAPRKERELVATISWRGDGTYYADSVKGRFTISRDKAKNTVYFQLISLKPEETAVDYCAARGVWPEYDYWGQGTQVTVSS | low polyreactivity
QVQLVESGGGLVQAGGSLRLSCAASGNIFKGYAMGWYRQAPGKERELVAAISKSGGSTYYADSVKGRFTISRDNAKNTVYLQMNSLKPEDTAVYYCAARSGGSGGTYGYWGQGTQVTVSS | high polyreactivity
QVQLVESGGGLVQAGGSLRLSCAASGNIFKSYTMGWYRQAPGKERELVAAITSGGRTNYADSVKGRFTISRDNAKNTVYLQMNSLKPEDTAVYYCAAKHFRWGTGDYWGQGTQVTVSS | high polyreactivity
QVQLVESGGGLVQAGGSLRLSCAASGNIFKWYAMGWYRQAPGKERELVAAISKSGGSTYYADSVKGRFTISRDNAKNTVYLQMNSLKPEDTAVYYCAAGWKHGTYRYTVESNFDYWGQGTQVTVSS | high polyreactivity
QVQLVESGGGLVQAGGSLRLSCAASGNIFKYYAMGWYRQAPGKERELVAAISWGGSRTYYADSVKGRFTISRDNAKNTVSLQMNSLKPEDTAVYYCAARVYGVDGFGYWGLGTQVTVSS | high polyreactivity
QVQLVESGGGLVQAGGSLRLSCAASGNIFLFYVMAWYRQAPGKERELVAAITLSGTNTYYADSVKGRFTISRDNAKNTVYLQMNSLKPDDTAVYYCAAEPKTYDWYPWGQVIENYWGQGTQVTVSS | low polyreactivity
QVQLVESGGGLVQAGGSLRLSCAASGNIFLYYAMGWYIPAPGKEREFVSDIDSSGASTYYADSVKGRFTISRDNAKNTVYLQMNSLKPEDTAVYYCAAEFHWWYAGYDYGYWGQGTQVTVSS | low polyreactivity
QVQLVESGGGLVQAGGSLRLSCAASGNIFLYYAMGWYRQAPGKERELVADIDASGASTYYADSVKGRFTIARDNAKKTVYLQLNSLTPEDTAVYYCAAEFHWWYAGYDYGYWGQGTQVTVSS | low polyreactivity
QVQLVESGGGLVQAGGSLRLSCAASGNIFNEYAMGWYRQAPGKERELVAAITWSAGSTYYADSVKGRFTISRDNAKNTVYLQMNSLKPEDTAVYYCNAEYTWHRGYDYWGQGTQVTVSS | low polyreactivity
QVQLVESGGGLVQAGGSLRLSCAASGNIFPAYAMGWYRPAPGKERELVATISRRGGGTYYADSVKGRFTISRDNAKNTVYLQMNSLKPEDTAVYYCNGAGWTSAYDYWGQGTQVTVSS | low polyreactivity
QVQLVESGGGLVQAGGSLRLSCAASGNIFPGYAMGWYRQAPGKERELVAGISGSGGRTYYADSVKGRFTISRDNAKITVYLQMNSLKPEDSAVYYCAAEFKYYYRFEYDYWGQGTQVTVSS | low polyreactivity
QVQLVESGGGLVQAGGSLRLSCAASGNIFPRYAMGWYRQATGKERELVAAITWRTSSTYYADSVKGRFTISRDNAKNTVYLQMNSLKPEDTAVYYCAKTSSRIAGEYWGQGTQVTVSS | low polyreactivity
QVQLVESGGGLVQAGGSLRLSCAASGNIFQKYAMGWYRQAPGKERELVAAIRRGDRTYADSVKGRFTISRDNAKNTVYLQMISLKPEDTAVYYCAAPQVWWGYYTRGVDYWGQGTQVTVSS | low polyreactivity
QVQLVESGGGLVQAGGSLRLSCAASGNIFRPYTMGWNRQEPGKERELVARISSGGSTNYADSVKGRFTISRDNAKNTVYFQMNSLKPEDTAVYYCAKRYGTVHSRYGYWGQGTQVTVSS | high polyreactivity
QVQLVESGGGLVQAGGSLRLSCAASGNIFRPYTMGWYRQAPGKERELVARISSGGSTNYADSVKGRFTISRDNAKNTVNLQMNSLKPEDTAVYYCAKRYGTVHSRYGYWGQGTQVTVSS | high polyreactivity
QVQLVESGGGLVQAGGSLRLSCAASGNIFRTYAMGWYRQAPGKERELVAAISRGGRTYYADSVKGRFTISRDNAKNSVYLQMNSLKPVDTAVYYCNVQPDRISRYDYWGQGTQVTVSS | high polyreactivity
QVQLVESGGGLVQAGGSLRLSCAASGNIFRYYAMGWYRQSPGKERELVAAITRSGGSTYADSVKGRFTISRDNAKNTVYLQMNSLKPEDTAVYYCAAVGYRYFTIYDYWGQGTQVTVSS | low polyreactivity
